Laboratory results from article PMC5989791.

Biological target: amatuximab, chimerized monoclonal IgG1 antibody targeting mesothelin (unlabelled) (human)
Assay: ELISA

- percent decrease of CD16a binding to amatuximab: 50%
- percent reduction of amatuximab binding to CD32a: 29%
Substance: CA125 tumor-shed antigen, soluble (sCA125), patient-derived (from UniProt Q8WXI7 1-14507) (natural protein)
